Numbering of substitutions follows the chain as printed.
Target: cyno LAIR-1-Fc (cynomolgus monkey)
Test: ELISA blocking: plate coated with 5 µg/mL human collagen type 1, antibody titrated, 1 µg/mL biotinylated cyno LAIR-1-Fc, streptavidin-HRP, OD650

Chain of cyno LAIR-1-Fc (cynomolgus monkey) (chain, as listed by the source limits assumed, form in doubt): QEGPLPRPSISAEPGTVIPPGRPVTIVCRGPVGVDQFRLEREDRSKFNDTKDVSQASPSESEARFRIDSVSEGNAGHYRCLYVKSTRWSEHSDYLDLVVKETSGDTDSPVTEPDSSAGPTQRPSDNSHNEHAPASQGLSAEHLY

B1: anti-LAIR-1 antibody ch57D12 (antibody, V domains shown)
VH: QVQLQQSGAELARPGASVNLSCRASGYSFTSFGISWVKQRTGQGLEWIGEIYPRSDNTFYNEKFKGKATLTADKSSSTAYMELRSLTSEDSAVYFCARHFGSSSFDYWGQGTTLTVSS
VL: ENVLTQSPPIMAASLGQKVTMTCSASSSVSSIYFHWYQQKSGTSPKPLIHRASNLASGVPARFSGSGSGTSYSLTISSVEAEDDATYYCQQWSGYPLTFGGGTKLEIK
  IC50 (read off the curve): 6 nM

B2: anti-LAIR-1 antibody ch47H1 (antibody, V domains shown)
VH: EVQLVETGGGLVQPKGSLKLSCAASGFTFNINAMNWVRQAPGKGLEWVARIRTKNNNYATFYADSVKDRFTISRDDSQSMLYLQMNNLKTDDTAMYYCVRDRAGFFAYWGQGTPVTVSA
VL: DIQMTQSPASQSASLGESVTITCLASQTIGTWLGWYRQKPGKSPQLLIYAATSLADGVPSRFSGSGSGTKFSFKISSLQAEDFVIYYCQQLYSTPLTFGSGTKLEIK
  IC50 (read off the curve): 3 nM

B3: humanized anti-LAIR-1 antibody Hz47H1.v4 (antibody, human IgG1, kappa, N297G, V domains shown)
VH: EVQLVESGGGLVQPGGSLRLSCAASGFTFNINAMNWVRQAPGKGLEWVARIRTKNYNYATFYADSVKDRFTISRDDSKNSLYLQMNSLKTEDTAVYYCVRDRAGFFAYWGQGTTVTVSS
VL: DIQMTQSPSSLSASVGDRVTITCLASQTIGTWLGWYQQKPGKAPKLLIYAATSLAEGVPSRFSGSGSGTDFTLTISSLQPEDFATYYCQQLYSTPLTFGGGTKVEIKR
  IC50 (read off the curve): 3 nM

B4: anti-LAIR-1 antibody ch62G10 (antibody, V domains shown)
VH: EVQLVETGGGLVQPKGSLKLSCATSGFTFNINAMNWVRQAPGKGLEWVARIRTKNNNFATYYADSVKDRFTISRDDSQSMLYLQMNNLKTEDTAMYYCVRGPYFDYWGQGTTLTVSS
VL: B2 VL with G34A, R37Q, S77N, I85T, L96Y, S100G
  IC50 (read off the curve): 3 nM

B5: humanized anti-LAIR-1 antibody Hz62G10.v1 (antibody, human IgG1, kappa, N297G, V domains shown)
VH: EVQLVESGGGLVKPGGSLRLSCAASGFTFNINAMNWVRQAPGKGLEWVARIRTKNNNFATYYADSVKDRFTISRDDSKNTLYLQMNSLKTEDTAVYYCVRGPYFDYWGQGTLVTVSS
VL: B3 VL with G34A, E56D, L96Y
  IC50 (read off the curve): 3 nM
